{"source": "paper PMC5332220", "about": "(Biochemistry, 2016)", "key": {"SspB_milli [1]": {"target": "T1, SspB_milli (UniProt P45206 1-150, A58V)", "test": "fluorescence polarisation"}, "SspB_milli [2]": {"target": "T1, SspB_milli", "test": "fluorescence polarisation", "remark": "listed apart in the source"}}, "data": [{"binder": "improved Light Inducible Dimer (iLID) (designed binder, flavin mononucleotide (FMN) cofactor; in the lit state a metastable covalent bond of FMN with Cys450) MRGSHHHHHHGSLATTLERIEKNFVITDPRLPDNPIIFASDSFLQLTEYSREEILGRNCRFLQGPETDRATVRKIRDAIDNQTEVTVQLINYTKSGKKFWNVFHLQPMRDYKGDVQYFIGVQLDGTERLHGAAEREAVCLIKKTAFQIAEAANDENYF", "values": [{"measurement": "Kd", "setting": "SspB_milli [1]", "result": "56 ± 6", "unit": "µM"}, {"measurement": "fold weaker than the lit state", "setting": "SspB_milli [2]", "result": "≥ 25", "unit": "fold"}]}]}
